{"source": "paper PMC6039445", "about": "(Nature Communications, 2018)", "key": {"[1]": {"molecular_target": "HA of the Beijing 1989 strain (A/Beijing/353/1989 H3N2), soluble, biotinylated (Influenza A virus A/Beijing/353/1989 …, UniProt O11283, strain, biotin (site not stated))", "assay": "BLI", "conditions": "both partners purified"}, "[2]": {"molecular_target": "HA of the Shandong 1993 strain (A/Shandong/9/1993 H3N2), soluble, biotinylated (Influenza A virus A/Shandong/9/1993 …, UniProt H9XM74, strain, biotin (site not stated))", "assay": "BLI", "conditions": "both partners purified"}}, "data": [{"binder": "H3v-47 Fab (Fab, V domains shown) VH: QVQLVQSGAEVKKPGSSVRVSCKASGDTFSSYSITWVRQAPGHGLQWMGGIFPIFGSTNYAQKFDDRLTITTDDSSRTVYMELTSLRLEDTAVYYCARGASKVEPAAPAYSDAFDMWGQGTLVTVSS VL: DIVMTQSPGTLSLSPGERATLSCRTSQGVSSSYLAWYQQKPGQAPRLLISGSSSRATGIPDRFSGSGSGRDFTLTISRLEPEDSAVYYCQQYATSPTFGQGTRVEIK", "values": [{"measurement": "binding result", "setting": "[1]", "result": "binds"}, {"measurement": "binding result", "setting": "[2]", "result": "binds"}]}, {"binder": "H3v-47 IgG (antibody, V domains shown, also called mAb H3v-47; source: human hybridoma cell line, serum-free medium, purified (protein G); copies: 2 + 2) VH: QVQLVQSGAEVKKPGSSVRVSCKASGDTFSSYSITWVRQAPGHGLQWMGGIFPIFGSTNYAQKFDDRLTITTDDSSRTVYMELTSLRLEDTAVYYCARGASKVEPAAPAYSDAFDMWGQGTLVTVSS VL: DIVMTQSPGTLSLSPGERATLSCRTSQGVSSSYLAWYQQKPGQAPRLLISGSSSRATGIPDRFSGSGSGRDFTLTISRLEPEDSAVYYCQQYATSPTFGQGTRVEIK", "values": [{"measurement": "binding result", "setting": "[1]", "result": "binds"}, {"measurement": "binding result", "setting": "[2]", "result": "binds"}]}]}
